Experimental data published in paper PMC2119884.
Where “and” joins values, the source holds several entries; their conditions need not be identical. Equal values may be shown once. Read-outs that look alike come from different tables or passages of the source.

What was measured:
[1] = target: L266D mutant yeast actin (S. cerevisiae) (UniProt P60010); test: light scattering
[2] = target: L266D mutant yeast actin (S. cerevisiae) (UniProt P60010); test: light scattering; remark: listed apart in the source
[3] = target: L266D mutant yeast actin (S. cerevisiae) (UniProt P60010); test: light scattering; remark: listed apart in the source
[4] = target: L266D mutant yeast actin (S. cerevisiae) (UniProt P60010); test: sedimentation of F-actin
[5] = target: L266D mutant yeast actin (S. cerevisiae) (UniProt P60010); test: sedimentation of F-actin; remark: listed apart in the source
[6] = target: L266D mutant yeast actin (S. cerevisiae) (UniProt P60010); test: sedimentation of F-actin; remark: listed apart in the source
[7] = target: L266D mutant yeast actin (S. cerevisiae) (UniProt P60010); test: light scattering; remark: listed apart in the source

- critical concentration (Cc) for polymerization [1]: 11 µM
- critical concentration (Cc) for polymerization [2]: 6.5 µM
- elongation rate, times slower than wild-type actin [3]: 2 times and 3 times
- actin remaining in the supernate (starting concentration 70 µM) [4]: 46.5 µM
- actin remaining in the supernate (starting concentration 70 µM) [5]: 4.6 µM
- actin remaining in the supernate (starting concentration 70 µM) [6]: 11.6 µM
- critical concentration (Cc) for polymerization [7]: 1.2 µM
- elongation rate, times slower than wild-type actin [7]: 2 times and 3 times
Substance: L266D mutant yeast actin (from UniProt P60010 1-375) (natural protein)
